From patent US20220119467A1 come the findings set out here.

Assay in all cases: cell-based or functional assay
For one test, the target named is T1, YFP-degronSwitcha.
T1 sequence: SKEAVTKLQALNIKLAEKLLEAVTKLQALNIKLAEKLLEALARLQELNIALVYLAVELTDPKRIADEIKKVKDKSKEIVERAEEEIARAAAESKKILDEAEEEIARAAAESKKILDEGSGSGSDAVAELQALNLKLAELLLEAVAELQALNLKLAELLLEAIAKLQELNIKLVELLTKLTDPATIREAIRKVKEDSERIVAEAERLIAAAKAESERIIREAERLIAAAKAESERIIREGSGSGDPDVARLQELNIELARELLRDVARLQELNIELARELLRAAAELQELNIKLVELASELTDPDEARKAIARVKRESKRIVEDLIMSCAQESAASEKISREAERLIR

In test [1] the target is T2, dCas9-VP64-RFP-degronSwitcha.
T2 sequence: T1 sequence

Another test deals with SynTF-RFP-degronSwitcha.

No end group written: not given here.

B1: Keya-BFP (designed binder, not shown: large carriers)
chain: EARKAIARVKRESKRIVEDAERLIREAAAASEKISREAERLIREAAAASEKISRE
modifications: not fully specified (C-terminus); also: linker to BFP not given here
As to B1, in the test with YFP-degronSwitcha, the YFP fluorescence at steady state, flow cytometry, S. cerevisiae is less than 73%. In test [1], this molecule showed a decrease in RFP fluorescence at 31.25 nM E2, flow cytometry, S. cerevisiae of 78% and a decrease in pTet7x-YFP reporter fluorescence at 31.25 nM E2, flow cytometry, S. cerevisiae of 41%.

B2: keya-BFP-NLS (designed binder, not shown: large carriers)
chain: B1 chain
modifications: not fully specified (C-terminus); also: BFP and NLS sequences not given here
With B2, in the test with SynTF-RFP-degronSwitcha, the decrease in RFP fluorescence at 31.25 nM E2, flow cytometry, S. cerevisiae was determined as 61% and the decrease in pSynTF-YFP reporter fluorescence at 31.25 nM E2, flow cytometry, S. cerevisiae came to 82%.
